Measurements reported in the DeepSol protein solubility set.

Test: soluble on expression in E. coli; label from the status in PepcDB or PDB records

Soluble on expression in E. coli, not soluble:
MGSDKIHHHHHHMNVSIRLPRFEFDDKILEQGAEISRRLNQLRMEKFPPNATKTLRTFSMAEVAHYLGVSQNNLKRLHLEGKGPLPDQSPSGRRSYTATQMLELRQFLDQHGRTEVKKYVPHRKLGDKLQVVAVVNFKGGSGKTTTAAHLAQHLALTGHRVLAIDLDPQASLSALHGFQPELDRNLSLYEAIRYDDERRSIADVIIPTNFPGLDIIPANLELQEYEYDTPLAMQDKTSSAGRQFFTRMAKALSEVDDRYDVVVVDCPPQLGYLTLTAMSAATSVLITVHPQMLDLMSMSQFLLMLGGILKTIKAAGAAIELDWFRYLITRYEPTDIPQAQMVGFMQSMLAGQILENPMLKSTAISDAGLTKQTLYEVEKSAFTRSTYDRALESLDAVNAEIVTLIHRAWGRS, MGSDKIHHHHHHMNVVVQKYGGSSVATPERIKNVAQRIKKKVDEGYKVVVVVSAMGKTTDNLIKLAKEISPRPDSRELDMLLATGEQVSAALLSMALKDLGVKAKSLNAFQVKIKTTPHHTSARIVDIDDSVIRENLKDYDVLVVTGFQGVNEHGDLTTLGRGGSDTSAVALAAKLRVPCEIYSDVDGIYTCDPRVHPRAKKLAYITYDEALELTALGAKVLHSRSVEIAKKYGIPIYCASSFTEEEGTMVVERLPEWLEEPVVTGATISHGQIKVSISFLPKDVKYITAIFEEVGKRALNVDMISLVPSNGKVFLSFTILEDHKEDLDEALKEALRDVEGWKSTYEGGFAKLSIVGVGMRTSPGVAARFFEALERAGVTPELVTTSEIKISCLVPEEKAEEALKSVIEEFEL, MGSDKIHHHHHHMNWKVTIKNTIEELAKLKKDVKIENEGDPEHELSDAEDKVMKIELEEEFKPTMYSLYEFKSLNDKRIASIDSSSRYLRDFSVNTCLIGLSVYSNREGFIDGPFTVDIPYIGISSYREILESLKIDDINVRYKNVVNYYYVNEPNNEYKIDDIADELRLEAENVGLKRVIQNHDIVIIDGPIYPTPLELTEEINLETEARRKHRLAYAKLVNERIELLNNNVIGVVKRLENSKKLWRVKEINETIGNVKRMKDVTIIELIDERLCRKNYEYVCTIGPFKIEYALEVKDEDGRNVIEKVPTKYAYYVIIRKKYFPPTFLRIESTNKNLDISPVLSRLTERLMPTYIEIVDRRSKRISASLFLYAYEIASNYLNIIHDDKMGYLSVISQFTSE, MGSDKIHHHHHHMNYPFIYPGAIHMHTTYSDGSATFPHLIAAAREAGLRWVIVTDHDTLEGLPFAGWHDDVLVIVGHEITPDHNHFLALNVDTVISNELPPQQFIDEVYQRGGFGIIAHPDERVRNSFKDIYRWDDWTIDGPSQRTGRVVGLELWNFMSDWGEHLTERNKLALVLYPQLGLSGPTLATLAWWDRLNMVGRRTFGIGGVDAHGFKRKAPWGEIEVFPYPWIFRTLTNYLLLPEPLSSDATTATNQVYAALTAGRCYFVNRLDGDAPSIIFRLSRPGDLAEIGDTISLAGGPLLVEVDVGADAYARLIVNGEVMTSGIRRIRQTVTDDGVYRVEAYWGGKPWLFTNPIFVTAADAGREGSL, MGSDKIHHHHHHMNYTKMRGVEEKLVESIVRRTIDTAEARLRKYVFTPTGEKRPERKPLAKLKEEIESFLRTRENKLLVLYGLRGVGKTTMLAQIYFKLLPQIPRERLVYVSLDKLRPLGISLNYFVQAYERLLGERIEEFSQPTFLFIDEAHYDENFGITVKDLYDSASNLMIVVTGSSSLPLKLDPDLMRRAKKLRVPPLTFTEYLLLKRGLQIPEELSAALKHAFLNCDFSGVEEKLDGVLLKFTEKDVEDYLIQGSLPIYLTSKNPLEDAYEILRKIVEVDLVLEGLSETTREKALGLLLLLASGESLAYDELSSTLGLAKGTVEKLIEKLEDLEVIFPVRAYGSLGKVARKTPKYKFLAPMLRSAVLYEFGLFERDSKTLGMLLEDAVALYLHLLAKEKKLGLHYDAQKGGADFILKGQSRGIVIEVGWGKKGLRQVIKTMKKTGLNCGVVIYNGPLKKKGEVWFVPRELFLLML, MGSDKIHHHHHHMNYTQGSLFENIENIPLAGRMRPRNLSDYIGQEHILEKGKALRNMLEKDSITSMILWGPPGVGKTTLAMIIASTTKCNFVEFSAATSGIKEIKDIMIKAEKDRLFGIRTLLFIDEIHRFNKSQQDTFLPHVEKGDIILIGATTENPSFEVNSALLSRCRVFVLKPLSNNDIVKLLKNALTDTRGFKNKNIQISEDLLTLIAVYSNGDARTALNVLEMAVLSSKLEHGVVTINKGILEDCMQNKALIYDKNGEEHYNLISALHKSMRNSDVDAAIYWLARMLEGGEDPLYIARRLIRFSSEDIGVADTNALNVTVNVYNSCHYIGMPECSVNLTEAVVYLSLAPKSNSIYMAYEKAKKDAKETLASGVPLHLRNAPTKLMSDLGYSKGYKYAHDFDNKVVDMQCLPDNLKDEKYYFPTTEGREKLFKERLHYIKKKKHTVNKSI, MGSDKIHHHHHHMPATFAHCLLAREAMERFGKSKLFPGVLKTKNHFVVMGATGPDYPYLTDVMKYGVLHIGHNWANRMHYENIDGFILEGIKKLSSMNKTSEEFKNCLAWFSGYVSHVVADSYLHPVVNSTVHGIYLFTNEKHGRCELVQDIYIFKKMTDTDICAAAARDRNSFGYLSILDDCSDPQDLDKIHPHIRVFWSELLKAAHPYASDYFGDLNLDEWHKNYKGRVDFAADSQSIFRHVLDIANAPRYVPWTASSISKEERSKYIDNVETPRGTKQSYDTLFSLVADQIAATWNALFPYIKNGQVPPATLVKDWNLDTGVDESKIDFWKEA, MGSDKIHHHHHHMPETLNLNYYYGNEADQYSFYRIPKTLLTDRRYKGVSLEAKVLYGLLLDRMGLSARNGWLDNNGRVFLYFTQEEAMTMLGCGKDKVTKLFRELEGIGLMERKKQGQGHPARIYVKNFILEPEPTAPVQTAENQQSRPLPSAAVKTAEKPQSAPRKTSGQECGISAPNNTDINKTEKSDTDLSILPPTPSAVSSPAGKRAPRRMGLDEMESYRELIMENIDYDILLERYPYEKDLLDGYVELMLEVCCSTRESVRICGQEVPTEVIKSRFLKLNSEHIGYVMDSLKSNTAKIGNIKAYTLAALYNAPVTMGQYYTSLVSHDMAHGLLSG, MGSDKIHHHHHHMPFVFACLSIKIPRKGTVMAEPLATTPIRYSFGADEHLFAEVSESMSLEAFFKGMAVTRAVERMALDGVLDVCLANASFQVRFDPDRIAPEALLEAVRGAEAQAVAERSLQTRIIEIPVLYNDPWTHETLMRFRDRHQDPTSTDLEYAARINGLADVEAFIAAHSGAPWFVSMVGFVAGLPFMFQMVERERQLQVPKYLRPRTDTPKLTLGHGGCFGCIYSVRGAGGYQMFGVTPAPIYDPQQTLNYLKEHMVFFRPGDIVQFKPIDRRTYDQAVAEVEDGCFDLRIRPVAFSLDAFLADPVGYPKSLQEVLA, MGSDKIHHHHHHMPFVRLDVRRPGHADRIVYVPVTTRTSYLLKSSEGGMVLRFDRGDVVAARVRPLNIGDVGALLSRRRRHKRFQLPLGRGAVLQPLLHISGPEGRELARALGSLAGWGFGTASDNLQKTLSRHFNGPQAEAPERLPTVEPKIAVALHLHYPDLWPEFEALLEATGRQFQLFLTLTRPDAALAQRVQARFPGAEITVYENRGRDVGPFIQLLREGKFDPFDLICKLHGKKSGQSGPRMVLGEIWRQVSAFDLIGSRGVVDRIIANFERSPDTQMIGSRRFRLPNEWKGEKSAWGENRAMALNLLETMGMPSSSRLDFFAGTMFWVRRGALEPLRRLDLPLAAFPEETGQQDGTLQHALERVLGMICTKIGVASDGDMTTDSREADPIG, MGSDKIHHHHHHMPGICLCFQVHRPVILKRYTFFDIGRHHLYEDQEANRRILNQLADSCYLPANRLLLRLMEKSEGRFRVAFALSGAMIHLCEKYRQDIMEGFRRLADTGCVEFLNEADPHSLAFLFSPREFREQIEAHKKKIQELFGQNPTTFHCTDLIYSNELAGVAEEMGHSAFLAEGGQGLPGFQGPDFVYQPADCARLKLLLRNYHLSADIRLHFSDGSRNGHPFPAGWFAERILHSLENSGGQVVNLFLDYETSGKYLTPDRGNSEFLQALSAEMLGQPDFHFQLPAEIAQRYDPQARLDVTDSASGFDIHRNLTTVAGNAMQQDALRVLYDLEEAVRKRKDADCLAIWRMLQTSDYFNYMCTEGFADRVRRRDSGPYGSPYESYINYMNILEDFSRTLQS, MGSDKIHHHHHHMPGTAARPAPIRVTYAEVMQRIIGTEVEYGISSPSDPTANPILTSTQAVLAYAAAAGIQRAKRTRWDYEVESPLRDARGFDLSRASGPPPVVDADEVGAANMILTNGARLYVDHAHPEYSAPECTDPLDAVIWDKAGERVMEAAARHVASVPGAAKLQLYKNNVDGKGASYGSHENYLMSRQTPFSAVIAGLTPFLVSRQVVTGSGRVGIGPSGDEPGFQLSQRADYIEVEVGLETTLKRGIINTRDEPHADADKYRRLHVIIGDANLAETSTYLKLGATSLVLDLIEEGMDLSDLALARPVHAVHVISRDPSLRATVAMADGRELTALALQRIYLDRVAKLVDSRDPDPRAAHVVETWAEVLDLLERDPMECAEILDWPAKLRLLEGFRHRENLGWSAPRLHLVDLQYSDVRLDKGLYNRLVARGSMKRLVTEQQVLDAVDSPPTDTRAYFRGECLRRFGADIAAASWDSVIFDLGGDSLVRIPTLEPLRGSKAHVGALLDSVDSAVQLVEQLTAT, MGSDKIHHHHHHMPHHQYVLTLSCPDRAGIVSAVSTFLFENGQNILDAQQYNDTESGHFFMRVVFNAAAKVIPLASLRTGFGVIAAKFTMGWHMRDRETRRKVMLLVSQSDHCLADILYRWRVGDLHMIPTAIVSNHPRETFSGFDFGDIPFYHFPVNKDTRRQQEAAITALIAQTHTDLVVLARYMQILSDEMSARLAGRCINIHHSFLPGFKGAKPYHQAFDRGVKLIGATAHYVTSALDEGPIIDQDVERISHRDTPADLVRKGRDIERRVLSRALHYHLDDRVILNGRKTVVFTD, MGSDKIHHHHHHMPIHLIWGNDYEACNREIEELINSVIDSSWKSFNYSQLDGNDPKQNLRALEEAQSAPLGSGGRIVLVRRSPFCNGCSIELGNKLEQVIKLIPDKTHLILSNANKPDKRLKTTKLIEKSIQSNTLSQEKSFILPLPWDINGQRNLVKNNLERLNLKMNYETIDLIVESIGNDSSLINTELQKLSLFSEAVNTNLTTDKPREISKELVKKLIQNNSTNALEIANSLLKGEKIIALNKIQSLLKNGEPALRLITTLTGQSRGWLWVHLLDSQGNQDVKEIAKLAGIANPKRIFVIRKQIQGKSLGTLLELMKKLLKIEASIKSGIKPIDSFKDNLLTDSKILANN, MGSDKIHHHHHHMPIKSRAVVIPKRNTIEIRTVQVNEPKAGDVLIKTAFTSISAGTERMLLDGRLPQPQLLFPVVPGYETVGQVVQVGSKAPKELLGQWVYIGGARCFRGVNAAWGGQSEYITAEHERVVPLGSLDPATGVLLALAATALHGIKIGQIRRSDRVLVLGQGIVGQLAARLAKYAGAQHVAVADRVAVRLQASQADQVIDVTRESLDEAIGEAKVDVLIEATGSMGALSGALPLLANHGRVVLLGYYDHINIPYAPVFMREAQILVAREWEFGPDGDLPRVRDLLANGDLKVDGLLTHHVPLDRIQAAYRLAPGRPGLFEGCCHVAAKRYRRSVVLTRQGAMRISLEREMALCPPIQKRNNQVQQHECSPSTAKAAWENHSSPPIW, MGSDKIHHHHHHMPKLKLIGVDLGGTTFSVGLVSEDGKILKKVTRDTLVENGKEDVIRRIAETILEVSDGEEAPYVGIGSPGSIDRENGIVRFSPNFPDWHNVPLTDELAKRTGKKVFLENDANAFVLGEKWFGAGRGHDHIVALTLGTGIGGGVVTHGYLLTGRDGIGAELGHVVVEPNGPMCNCGTRGCLEAVASATAIRRFLREGYKKYHSSLVYKLAGSPEKADAKHLFDAARQGDRFALMIRDRVVDALARAVAGYIHIFNPEIVIIGGGISRAGEILFGPLREKVVDYIMPSFVGTYEVVASPLVEDAGILGAASIIKERIGG
